Laboratory results from patent US20210214440A1 (Janssen / Centocor, published 2021).

What follows are binders tested against T1, human CD8 on human pan T cells (human, UniProt P01732 22-235; P10966 22-210) (assay: flow cytometry, 20 nM mAb on human pan T cells).
T1 construct: Native CD8 on the CD4-negative population of human pan T cells
Procedure: Secondary antibodies were A647-conjugated goat anti human IgG Fc antibody at 2 μg/mL, and A488-conjugated mouse anti-human CD4 at 1 μg/mL in staining buffer. Live cells were also gated based on OKT8 control mAb binding. Percent CD8 positive population was calculated by percentage of CD8-positive cell count/live cell count.

T1 sequence (P01732 22-235, chain 1 of 2): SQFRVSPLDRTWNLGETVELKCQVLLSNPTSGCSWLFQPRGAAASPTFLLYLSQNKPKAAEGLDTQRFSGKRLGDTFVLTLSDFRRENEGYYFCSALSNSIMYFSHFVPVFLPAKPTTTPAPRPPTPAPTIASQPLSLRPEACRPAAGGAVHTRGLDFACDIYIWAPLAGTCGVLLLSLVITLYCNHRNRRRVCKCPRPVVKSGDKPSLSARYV
T1 sequence (P10966 22-210, chain 2 of 2): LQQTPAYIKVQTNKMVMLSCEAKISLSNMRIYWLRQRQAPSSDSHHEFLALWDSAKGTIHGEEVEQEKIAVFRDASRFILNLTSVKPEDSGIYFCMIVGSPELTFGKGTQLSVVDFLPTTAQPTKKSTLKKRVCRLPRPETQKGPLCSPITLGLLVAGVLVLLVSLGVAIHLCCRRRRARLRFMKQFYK

Row | Cell Binding to Human PanT Signal/Background (of CD4 negative population) | Binder
1 | 1980 | CD8B337 (antibody, human IgG1, kappa, V domains shown, full-length human IgG1, kappa) VH: QVTLKESGPGKVQPSQTLSLTCSFSGFSLSTSGMGVSWIRKPSGKGLEWLAHIFWDDDRRYKSSLKSRLTISKDTSSNQVFLMITSVDTADSATYYCARRVGYGDYAYFDVWGAGTTVTVSS VL: DIQMTQYPASLSVSVGETVTITCRASENIYSDLAWYQQKQGKSPQLLVYAATNLADGVPSRFSGSGSGTQYSLKINSLQSEDFGNYYCQHFWGTPWTFGGGTKLEIKR
2 | 36 | CD8B186 (antibody, human IgG1, kappa, V domains shown, full-length human IgG1, kappa) VH: QVQLQQSGAELAKPGASVKMSCKASGYIFTSYWMHWVKQRPGQGLEWIGNINPSSGYAVYNQKFKDKATLTADQSSSTAYIQLNSLTSEDSAVYYCARRVFYGDSWFAYWGQGTSVTVSS VL: DVQMIQSPASLSASVGETVTITCRASGNIHNYLAWYQQKQGKSPQLLVYNAKTLADGVPSRFSGSGSGTQYSLKINSLQPEDFGSYYCQHFWSTTWTFGGGTKLEIKR
3 | 22 | CD8B192 (antibody, human IgG1, kappa, V domains shown, full-length human IgG1, kappa) VH: QVQLQQSGPVLVKPGASVKMSCKASGYTFTDYYMNWVMQSHGKSLEWIGVINPYNGGTTYNQRFTGKATLTVDKSSSTAYMELNSLTSEDSAVYYCARNYGAMDSWGQGTSVTVSS VL: DIQMTQSPASLSASVGETVTITCRASGNIHNYLAWYQQKQGKSPQLLVSNAKTLADGVPSRFGGSGSGTQYSLKINSLQPEDFGSYYCQHFWITPPTFGAGTRLEIKR
4 | 44 | CD8B245 (antibody, human IgG1, kappa, V domains shown, full-length human IgG1, kappa) VH: EFQLQQSGGGLVQPGGSLSLSCAAPGFTFTDYYMSWVRQSPGKALEWLALSRNKGNGYTTEYSASVKGRFTISRDNSQSILYLQMNVLRAEDSATYYCARTVTGTLFYYALDYWGQGTTVTVSS VL: DIQMTQSPASLSASVGETVTITCRASENIYSYLAWYQQKQGKSPQFLVYNAKTLAAGVPSRFSGSGSGTQFSLKINRLQPEDFGTYYCQHHYGTPLTFGDGTRLEIKR
5 | 29 | CD8B310 (antibody, human IgG1, kappa, V domains shown, full-length human IgG1, kappa) VH: QVQLKESGPGLVAPSQSLSITCTVSGFSLTNYAVHWVRQSPGKGLEWLGVIWTDGSTDYNAGFISRLSISKDNSKSQVFFKMNSLQADDTAIYYCARNNGYFPAFFAYWGQGTTVTVSS VL: DVLMTQTPLSLPVSLGDQASISCRSSQTIVHSNGNTYLEWYLQKPGQSPKLLMYKVSNRFSGVPDRFGGSGSGTDFTLKISRVEAEDLGVYYCFQGSHAPFTFGSGTKLEIKR
6 | 61 | CD8B250 (antibody, human IgG1, kappa, V domains shown, full-length human IgG1, kappa) VH: QVQLKESGPGLVAPSQSLSITCTVSGFSLSNYVVHWVRQSPGKGLEWLGVIWTDGSTDYNAAFISRLSISKDNSKSQVFFKMNSLQADDTAIYYCARNNGYFPAFFAYWGQGTLVTVSA VL: DIVMTQSQKFMSTSVGDRVSVTCKASQNVDTDITWYQQKPGQSPKALIYSASYRYSGVPDRFTGSGSGTDFTLTITNVQSEDLAEYFCQQYNSYPLTFGSGTKLEMKR
7 | 4 | CD8B362 (antibody, human IgG1, kappa, V domains shown, full-length human IgG1, kappa) VH: EVKLVESGAELVKPGASVKLSCTASGFNIKDTYMHWVKQRPEQGLEWIGRIDPANGHTKFDPKFQGKATITADTSSNTAYLQLSSLTSEDTAVYYCAIRFAYWGQGTLVTVSA VL: DIQMTQSPSSLSASLGDRVSLTCRASHEISGYLSWLQQKPDGTFKRLIYAASTLDSGVPKRFSGSRSGSDYSLSISSLESEDFADYYCLQYSSYPYTFGSGTKLEMKR
8 | 1 | CD8B311 (antibody, human IgG1, kappa, V domains shown, full-length human IgG1, kappa) VH: QVQLKESGPELVKPGASVKLSCKASGYTFTSYWMHWVKQRPGQGLEWIGMIHPNSGSTNYNEKFKSKATLTVDKSSSTAYMQLSSLTSEDSAVYYCARCGYDGAWFAYWGQGTSVTVSS VL: DIQMTQTTSSLSASLGDRVTISCSASQGISNCLNWYQQKPDGTVKLLIHYTSSLHSGVPSRFSGGGSGTHYSLTISNLEPEDIATYYCQQYSKVPYTFGSGTKLEIKR
9 | 20 | CD8B248 (antibody, human IgG1, kappa, V domains shown, full-length human IgG1, kappa) VH: EVQLQQSGAELARPGASVKMSCKASGYTFTTYTMHWVKQRPGQGLEWIGYINPSSGYTKYNQKFTDKATLTADKSSSTAYMQLSSLTSEDSAVYYCARLWAYWGQGTLVTVSA VL: DVVMTQTPLSLPVSLGDQASISCRSSQSLVHSSGNTYLHWYLQKPGQSPKLLIYKGSNRFSGVSDRFSGSGSGTDFTLKISRVEAEDLGVYFCSQSTHVPFTFGSGTKLEMKR
10 | 23 | CD8B254 (antibody, human IgG1, kappa, V domains shown, full-length human IgG1, kappa) VH: EVQLQQSGAELVKPGASVKMSCKTSGYTFSSYWITWVKQRPGQGLEWVGDIYPGSGSTNYNEKFKSKAALTVDTSSSTAFMQLNSLTSEDSAVYYCARESITTRITPFDHWGQGTTLTVSS VL: DVVMTQTPLSLPVSLGDQASISCRSSQSLVHSSGNTYLHWYLQKPGQSPKLLIYKGSNRFSGVSDRFSGSGSGTDFTLKISRVEAEDLGVYFCSQSTHVPFTFGSGTKLEIKR
11 | 318 | CD8B366 (antibody, human IgG1, kappa, V domains shown, full-length human IgG1, kappa) VH: EVQLQQSGPELVRPGASVKLSCTASGFNIKDDYIHWVKQRPEQGLEWIGRIDPANGNPRYAPKFQDKATLTADTSSNTAYLQLSSLTSEDTAVYYCARDDEGYYYFDVWGAGTSVTVSS VL: DIKMTQSPSYLAASPGETITINCRASKSISKYLAWYQEKPGKTNKVLIYSGSTLQSGIPSRFSGSGSGTDFTLTISSLEPEDFAIYYCQQHNEYPLTFGDGTRLEIKR
12 | 8 | CD8B340 (antibody, human IgG1, kappa, V domains shown, full-length human IgG1, kappa) VH: QVQLQQPGAELVKPGASVRLSCKASGYTFTNYWMQWVQQRPGQGLEWIGEIDPSDTFTNYNQNFKDKATLTVDTSSSTAYLQLSSLTSEDSAVYYCARGDWDRDWYFDVWGTGTLVTVSA VL: not shown
13 | 1610 | CD8B324 (antibody, human IgG1, kappa, V domains shown, full-length human IgG1, kappa) VH: QVQLQQPGADLVKPGASVKLSCKASGYTSTSHWIHWVKQRPGQGLEWIGNIYPGSSSTNYNEKFKRMATLTVDTSSSTVYMVLSSLTSDDSAVYYCARHSPGHRDYAMDYWGLGTSVTVSS VL: DIVMTQSQKFMPTTVGDRVSITCKASQNVGTAVAWYQQKPGQSPKLLIASASNRYTGVPDRFTGSGSGTDFTLTISTMQSEDLADYFCQQYSTYPLTFGAGTKLEMKR
14 | 16 | CD8B319 (antibody, human IgG1, kappa, V domains shown, full-length human IgG1, kappa) VH: QVQLKESGPELKKPGETVKISCKASGYSFTAYYMHWVKQSPEKSLEWIGEINPSAGGTTYNQKFKAKATLTVDKSSSTAFIQLKSLTSEDSAVYYCARWTNPFDYWGQGTTLTVSS VL: DIVMTQSQKFMSTTVGDRVSITCKASQNVGTAVAWYQQKPGQSPKLLIYSASYRYTGVPDRFTGSGSGTHFTLTISNIQSEDLADYFCQQYNNYLTFGSGTKLEIKR
